By EC50 is commonly meant the midpoint of the concentration-response curve.

Where two headings read alike, the source gives them in different places.

Common to all, as to experiment: ELISA
Background: ELISA stands for enzyme-linked immunosorbent assay.

Assay [1] deals with recombinant CD32B ectodomain (Homo sapiens (assumed), UniProt P31994).
Assay [2] addresses recombinant CD16B ectodomain (Homo sapiens, UniProt O75015).
Assay [3] deals with recombinant CD64A ectodomain (Homo sapiens (assumed), UniProt P12314).
The target in assay [4] is recombinant CD32A ectodomain (Homo sapiens (assumed), UniProt P12318).
The target of assay [5] is T1, recombinant CD16A-mFc (CD16A-158V extracellular domain fused to monomeric Fc) (Homo sapiens, allotype 158V, UniProt P08637, strain).
In assay [6] the target is T1, recombinant CD16A-mFc (CD16A-158V …). The source holds these as a separate data set.
Assay [7] addresses CD16A-158F-mFc (CD16A carrying the 158F isoform, monomeric Fc fusion) (Homo sapiens, allotype 158F, UniProt P08637).

T1 sequence (P08637 17-208, change not shown): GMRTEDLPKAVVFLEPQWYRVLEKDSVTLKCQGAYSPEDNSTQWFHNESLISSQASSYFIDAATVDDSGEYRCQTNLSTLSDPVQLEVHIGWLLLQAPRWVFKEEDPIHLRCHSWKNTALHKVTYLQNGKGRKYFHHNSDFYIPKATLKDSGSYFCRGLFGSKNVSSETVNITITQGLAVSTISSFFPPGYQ
Chain of recombinant CD32A ectodomain (P12318 34-217): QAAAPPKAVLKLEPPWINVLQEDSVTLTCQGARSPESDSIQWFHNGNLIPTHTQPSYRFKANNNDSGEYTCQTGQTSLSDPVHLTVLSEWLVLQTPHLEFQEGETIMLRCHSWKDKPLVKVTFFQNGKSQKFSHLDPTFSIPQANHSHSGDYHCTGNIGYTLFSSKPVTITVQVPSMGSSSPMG
Chain of recombinant CD32B ectodomain (P31994 43-217): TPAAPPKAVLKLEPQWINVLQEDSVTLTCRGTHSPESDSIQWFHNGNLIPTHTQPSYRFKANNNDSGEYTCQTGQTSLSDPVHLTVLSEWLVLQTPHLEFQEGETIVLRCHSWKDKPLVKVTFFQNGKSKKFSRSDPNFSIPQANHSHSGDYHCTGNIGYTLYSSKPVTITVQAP
Chain of recombinant CD16B ectodomain (O75015 whole entry, looked up, the tested form may be a part): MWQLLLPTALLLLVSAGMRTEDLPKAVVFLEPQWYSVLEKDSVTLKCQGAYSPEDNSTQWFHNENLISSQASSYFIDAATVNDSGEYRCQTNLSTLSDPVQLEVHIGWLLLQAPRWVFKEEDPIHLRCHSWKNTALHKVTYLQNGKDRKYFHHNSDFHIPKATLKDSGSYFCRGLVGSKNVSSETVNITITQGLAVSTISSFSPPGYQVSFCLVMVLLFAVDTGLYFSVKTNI
Chain of CD16A-158F-mFc (CD16A carrying the 158F isoform, monomeric Fc fusion) (P08637 17-208): as the sequence (P08637 17-208, change not shown) above
Chain of recombinant CD64A ectodomain (P12314 16-292): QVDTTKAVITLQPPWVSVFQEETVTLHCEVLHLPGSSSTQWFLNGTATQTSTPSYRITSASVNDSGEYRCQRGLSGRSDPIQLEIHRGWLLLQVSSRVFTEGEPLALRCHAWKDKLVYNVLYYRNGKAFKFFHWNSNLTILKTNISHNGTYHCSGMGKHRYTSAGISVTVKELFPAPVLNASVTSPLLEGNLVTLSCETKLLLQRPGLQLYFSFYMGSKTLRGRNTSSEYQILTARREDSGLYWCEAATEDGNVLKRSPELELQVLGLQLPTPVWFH

B1: antibody domain D6 (VHH)
VH: EVQLVESGGGLVQPGGSLRLSCAASGFTFSNYGMSWVRQAPGKGLEWIGSIYYSGGSTNYNPSLKGSLVISRDNSKNTLYLQMNSLAEDTATYYCARESIDYWGQGTLVTVSS
For the molecule B1, the binding result in assay [1] was “no binding”; in assay [2] it was “no binding”; in assay [3], “no binding”; in assay [4] it was “no binding”; in assay [7] it was “binds”. Besides, the figures for the EC50 in assay [5] and in assay [6] were ~60 nM and 4 nM, respectively.

B2: antibody domain E11 (VHH)
VH: EVQLVESGGGLVQPGGSLRLSCAASGFTFSSYGMSWVRQAPGKGLEWIGEVNHSGGSTNYNPSLKGSFVISRDNSKNTLYLQMNSLAEDTAVYYCARVGSFDFWGQGTLVTVSS
With B2, the binding result in assay [1] is “no binding”; in assay [2], “no binding”; in assay [3], “no binding”; in assay [4], “no binding”; in assay [7], “binds”. Moreover, the EC50 in assay [6] is 8 nM.

These data come from publication PMC6957250 (Experimental and molecular pathology, 2016).
